# Measurements from paper PMC12708450.
# Molecular target: PD-L1 (recombinant human) (Homo sapiens) (UniProt Q9NZQ7)
# Test: ELONA
# Details: 1:1 hyperbolic fit; internal C3 spacer (iSpC3) between DNA nt 63 and RNA nt 1 (strand position 64); nt 1-63 DNA, nt 64-82 RNA; strand 2 RNA; ELONA: PD-L1 coated in PBS at 4 C overnight; blocked with PBS, 0.1% Tween 20, 1% BSA; wash PBS, 1 mM MgCl2, 0.1% Tween 20, 0.1% BSA; oligo heated 95 C 10 min …
# Chain of PD-L1 (recombinant human) (Homo sapiens) (Q9NZQ7 19-238): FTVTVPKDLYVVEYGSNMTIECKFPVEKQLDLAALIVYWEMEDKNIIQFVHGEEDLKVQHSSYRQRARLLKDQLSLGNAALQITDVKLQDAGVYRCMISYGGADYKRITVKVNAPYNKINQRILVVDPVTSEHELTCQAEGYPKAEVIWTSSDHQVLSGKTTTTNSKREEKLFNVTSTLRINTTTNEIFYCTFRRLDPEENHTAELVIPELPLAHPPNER
sequence,measurement,value
ACCGACCGTGCTGGACTCATCTCGCTTTTTTCACGGTCCACACTACTATGAGCGAGCCTGGCGGGAAUGACCUCUUUCACCA / UGGUGAAAGAGGUCAUUCC [PD-L1 aptamer-CD47 siRNA chimera],Kd,174 nM
